Seven molecules from patent US20170081378A1 (INDIANA UNIVERSITY RESEARCH AND TECHNOLOGY, published 2017) can be followed below.

Where no end group is shown, it is not given here.

For test [1], the target named is fLL-37 (LL-37 with 5' carboxyfluorescein coupled to the N-terminus) (human). Description: fluorescence polarization, fLL-37 0.1 uM, peptide titrated 1-1000 nM, phosphate buffer pH 7.0.
The target of test [2] is T1, fLL-37 (LL-37 with 5' carboxyfluorescein coupled to the N-terminus) (human, 5' carboxyfluorescein coupled to the N-terminus).
T1 construct: Custom synthesized labelled peptide (AnaSpec), used at 0.1 uM in the fluorescence polarization assay; also called fluorescein-labeled LL-37
T1 peptide: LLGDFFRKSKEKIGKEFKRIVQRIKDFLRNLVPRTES
Description: fluorescence polarization (FIG. 11).

Test [3] concerns the target T1, fLL-37 (LL-37 with 5' …). Description: fluorescence polarization, fLL-37 0.1 uM, peptide titrated 1-1000 nM, phosphate buffer pH 7.0.
Test [4] concerns the target T1, fLL-37 (LL-37 with 5' …). Kind of test: FRET between fLL-37 and rLL-37 (1:1) in endosomes of BEAS-2B cells, confocal microscopy. As for the experimental part:
FIG. 3. Oligomerization of LL-37 depends upon pH. A) LL-37 forms particles that are micrometers in hydrodynamic radii at neutral pH and the particles dissociate when the pH is decreased. All assays were performed with LL-37 at a concentration of 1 ᵢlM in phosphate buffer. […] C) LL-37 particles will dissociate in the presence of salt. The hydrodynamic radius of ˜1 μM LL-37 was determined in a pH 7.4 phosphate buffer adjusted to contain the concentration of NaCl indicated. D) fLL37 and rLL-37 colocalize in endosomes of BEAS-2B cells. fLL-37, rLL-37, and poly(I:C) were added to BEAS-2B cells that were either mock-treated or treated with ammonium chloride and imaged 60 min later by excitation at 488 nm or at 561 nm. The micrograph images were then merged to show the co-localization of the two fluorescent peptides. E) Co-localization of fLL-37 and rLL-37 in BEAS-2B cells was quantified in the absence or presence of endosomal acidification inhibitors. To detect both peptides, the cells were excited with 488 and 561 nm laser. To determine FRET between the two peptides, the cells were excited at only 488 nm laser, which activates fluorescence of fLL-37 and the emissions for both fluorescein and rhodamine were determined. The data shown were quantified from 20 independent cells from three independently prepared samples. The p values were calculated by using the Student t-test. […]

B1: LL9-29 (peptide)
peptide: SKEKIGKEFKRIVQRIKDFLR
Consider B1, for which the fold change in the fluorescence anisotropy values of f-LL-37 between 1.0 nM and 1000 nM of added peptide in test [1] was determined as 2.6 fold.

B2: LL8-37 (peptide)
peptide: SKEKIGKEFKRIVQRIKDFLRNLVPRTES
For B2, the binding result in the test with fLL-37 (LL-37 with 5' …) [2] was “binds”.

B3: mCRAMP (murine ortholog of LL-37) (peptide)
peptide: GLLRKGGEKIGEKLKKIGQKIKNFFQKLVPQPEQ
notes: also called mouse peptide
Turning to B3, in the test with fLL-37 (LL-37 with 5' …) [3], the “fold change in the fluorescence anisotropy values of f-LL-37 between 1.0 nM and 1000 nM of added peptide” value (shortened to “fold change”) was found to be 2.6 fold.

B4: LL-29 (peptide)
peptide: LLGDFFRKSKEKIGKEFKRIVQRIKDFLR
notes: N-terminal 29 residues of LL-37 (lacks the C-terminal 8 residues)
Take B4: the “fold change” value with fLL-37 (LL-37 with 5' …) [3] was found to be 6.2 fold.

B5: rhodamine-labeled LL-37 (rLL-37) (peptide)
peptide: LLGDFFRKSKEKIGKEFKRIVQRIKDFLRNLVPRTES
modifications: also: rhodamine label, position not given here
Consider B5, for which, in the test with fLL-37 (LL-37 with 5' …) [4], the binding result is listed as “binds”.

B6: LL-37 (peptide)
peptide: LLGDFFRKSKEKIGKEFKRIVQRIKDFLRNLVPRTES
notes: Unlabelled synthetic 37-residue peptide; also called WT LL-37; native LL-37
In the case of B6, in the test with fLL-37 (LL-37 with 5' …) [3], the “fold change” value worked out at 6 fold.

B7: Peptide A (peptide)
peptide: LLGDFFRKSKEKIGKEFKRIVQRIKDFLRKLVPQPEQ
notes: LL-37 with the C-terminal four residues replaced with those from mCRAMP
B7: the “fold change” value in the test with fLL-37 (LL-37 with 5' …) [3] is 5 fold.
